Laboratory results from article PMC8692065 (Cell Reports, 2021).

B1: mAb-64, purified antibody (antibody, V domains shown)
VH: EVQLVETGGGLIQPGGSLRLSCAASGFTVSSNYMSWVRQAPGKGLEWVSVIYSGGSTYYADSVKGRFTISRDNSKNTLYLQMNSLRAEDTAVYYCARDLHIYGMDVWGQGTTVTVSS
VL: DIQMTQSPSSVSASVGDRVTITCRASQGISSWLAWYQQKPGKAPKLLIYAASSLQSGVPSRFSGSGSGTDFTLTISSLQPEDFATYYCQQANSFPNFGGGTKVEIK
B2: mAb-50, purified antibody (antibody, V domains shown)
VH: QVQLQESGPGLVNPSETLSLTCGVSGYSISSGFYWGWIRQPPGKGLEWIGSIYHRGSTFYNPSLKSRVTISVDRSKNQFSLRLSSVTAADTAVYYCARGEVLTSGGYNARFDPWGQGTLVTVSS
VL: DIQMTQSPSTLSASVGDSVTITCRASQSISLWLAWYQQKPGKAPKVLIYETSSLESGVPSRFSGSGAGTEFTLTISSLQPDDFATYYCQQYISYPLTFGGGTKVEIK

Target: SARS-CoV-2 S1 (Avi-tag, biotinylated) (SARS-CoV-2, original strain, UniProt P0DTC2, biotinylated (Avi-tag))
Assay: BLI

Binder	Kd [nM]
B1	1.96
B2	1.61
